Experimental data from patent US20210059142.

Legend:
Assay in all cases: cell_activity
[1] = system: FucT1_T01 TAL effector endonuclease, right monomer (engineered); conditions: yeast beta-gal assay of the pair 37 C; 0.6 at 30 C
[2] = system: FucT1_T02 TAL effector endonuclease, left monomer (engineered)
[3] = system: FucT2_T02 TAL effector endonuclease, left monomer (engineered)
[4] = system: XylT_T04 TAL effector endonuclease, left monomer (engineered); conditions: yeast beta-gal assay of the pair 37 C; 0.9 at 30 C; protoplast NHEJ 73.8% XylT1, 63.9% XylT2 (Table 3)
[5] = system: FucT1_T02 TAL effector endonuclease, right monomer (engineered); conditions: yeast beta-gal assay of the pair 37 C; 0.7 at 30 C; protoplast NHEJ 39.2% FucT1, 24.7% FucT2 (Table 3)
[6] = system: FucT2_T02 TAL effector endonuclease, right monomer (engineered); conditions: yeast beta-gal assay of the pair 37 C; 0.7 at 30 C; protoplast NHEJ 46.5% FucT1, 45.0% FucT2 (Table 3)
[7] = system: FucT2_T01 TAL effector endonuclease, left monomer (engineered); conditions: yeast beta-gal assay of the pair 37 C; 0.8 at 30 C
[8] = system: XylT_T03 TAL effector endonuclease, right monomer (engineered); conditions: yeast beta-gal assay of the pair 37 C; 0.7 at 30 C; protoplast NHEJ 34.4% XylT1, 28.2% XylT2 (Table 3)
[9] = system: XylT_T03 TAL effector endonuclease, left monomer (engineered); conditions: yeast beta-gal assay of the pair 37 C; 0.7 at 30 C; protoplast NHEJ 34.4% XylT1, 28.2% XylT2 (Table 3)
[10] = system: FucT1_T01 TAL effector endonuclease, left monomer (engineered); conditions: yeast beta-gal assay of the pair 37 C; 0.6 at 30 C
[11] = system: FucT_T04 TAL effector endonuclease, left monomer (engineered); conditions: yeast beta-gal assay of the pair 37 C; 0.5 at 30 C; same with FucT1 and FucT2 spacers
[12] = system: FucT2_T01 TAL effector endonuclease, right monomer (engineered); conditions: yeast beta-gal assay of the pair 37 C; 0.8 at 30 C
[13] = system: FucT_T04 TAL effector endonuclease, right monomer (engineered); conditions: yeast beta-gal assay of the pair 37 C; 0.5 at 30 C; same with FucT1 and FucT2 spacers
[14] = system: XylT_T04 TAL effector endonuclease, right monomer (engineered); conditions: yeast beta-gal assay of the pair 37 C; 0.9 at 30 C; protoplast NHEJ 73.8% XylT1, 63.9% XylT2 (Table 3)

“AATAAGCAATGGCGCAA (double strand) [FucT1_T01 target sequence 2]” was tested. Which activity (relative to I-SceI) [1] did it give?
The activity (relative to I-SceI) was 0.8.

Which activity (relative to I-SceI) ([2]; yeast beta-gal assay of the pair 37 C, 0.7 at 30 C, protoplast NHEJ 39.2% at FucT1 (Table 3)) does the source give for “TTCAAACGCACCCAATA (double strand) [FucT1_T02 target sequence 1]” here?
The activity (relative to I-SceI) was 0.9.

What about the activity ([3]; pair at endogenous FucT1, 1-bp polymorphism in half-site, N. benthamiana protoplasts, control 0.79%) of the same sequence?
Its activity is 46.5 % NHEJ.

“TCTCTTCGCTCTCAACT (double strand) [XylT_T04 target sequence 1]” was tested. Which activity (relative to I-SceI) [4] did it give?
The activity (relative to I-SceI) was 0.9.

What does the source list for “CTCTGTTCGTTGCCCTA (double strand) [FucT_T02 target sequence 2]”?
activity (relative to I-SceI) [5]: 0.9; activity (relative to I-SceI) [6]: 0.9

For “TGAGATCGTCGTCAAAT (double strand) [FucT2_T01 target sequence 1]”, which activity (relative to I-SceI) [7] is on record?
Its activity (relative to I-SceI) is 0.9.

Which activity (relative to I-SceI) [8] does the source give for “ATCACTCTCTATCTCTA (double strand) [XylT_T03 target sequence 2]” here?
Its activity (relative to I-SceI) is 0.9.

“TTCTTGTTTCTCTCTTC (double strand) [XylT_T03 target sequence 1]” was tested. Which activity (relative to I-SceI) [9] did it give?
Its activity (relative to I-SceI) is 0.9.

How did the activity ([2]; pair at endogenous FucT2, 1-bp polymorphism in half-site, N. benthamiana protoplasts, control 0.14%) turn out when “TTCAAACGCACCCGATA (double strand) [FucT2_T02 target sequence 1]” was run?
The activity was 24.7 % NHEJ.

And the activity (relative to I-SceI) ([3]; yeast beta-gal assay of the pair 37 C, 0.7 at 30 C, protoplast NHEJ 45.0% at FucT2 (Table 3))?
The activity (relative to I-SceI) was 0.9.

“TGAGATCGGCGTCAAAT (double strand) [FucT1_T01 target sequence 1]” was tested. Which activity (relative to I-SceI) [10] did it give?
Its activity (relative to I-SceI) is 0.8.

With “TTGCCTCTGTTCGTTGC (double strand) [FucT_T04 target sequence 1]” as the sequence, how does the activity (relative to I-SceI) [11] read?
The activity (relative to I-SceI) was 0.6.

Which activity (relative to I-SceI) [12] does the source give for “GATAAACAATGGCGCAA (double strand) [FucT2_T01 target sequence 2]” here?
Its activity (relative to I-SceI) is 0.9.

How did the activity (relative to I-SceI) [13] turn out when “TTTCTGGTTCGACTCGA (double strand) [FucT_T04 target sequence 2]” was run?
Its activity (relative to I-SceI) is 0.6.

With “CTCTACTTCTCTTCCCA (double strand) [XylT_T04 target sequence 2]” as the sequence, how does the activity (relative to I-SceI) [14] read?
The activity (relative to I-SceI) was 0.9.
